Source: PMC9332313, “Folding and Binding Mechanisms of the SH2 Domain from Crkl” (Biomolecules, 2022)
Square brackets hold non-standard residues; d marks the D form. Ends that are not written are not given here. * marks the point of attachment. pY = N[C@@H](Cc1ccc(OP(=O)(O)O)cc1)C(=O)O; Dansyl = CN(C)c1cccc2c(S(=O)(=O)*)cccc12

Columns and labels:
Details in all cases: both partners purified
[1] = target: T1, SH2 domain of Crkl protein (residues 1-111), H91A variant (UniProt P46109 1-111, H91A); test: stopped-flow fluorescence kinetics (FRET); dansyl-Pax112-123 constant at 2 μM mixed with Crkl-SH2 2 to 10 μM (pseudo-first-order, kon); koff by displacement of the preincubated 2 µM complex with excess non-dansylated Pax112-123 (30 μM); 283 K; 50 mM TrisHCl pH 8.5, 0.5 M NaCl
T1 construct: Crkl adaptor protein, SH2 domain, residues 1-111, His91 replaced by alanine; Site-directed mutant of m1 (QuikChange); source: E. coli BL21 (DE3), purified (HisTrap nickel column, desalting); not shown: His tag, N-terminal, kept

[2] = target: T2, SH2 domain of Crkl protein (residues 1-111), wild type (UniProt P46109 1-111); test: stopped-flow fluorescence kinetics (FRET); dansyl-Pax112-123 constant at 2 μM mixed with Crkl-SH2 2 to 10 μM (pseudo-first-order, kon); koff by displacement of the preincubated 2 µM complex with excess non-dansylated Pax112-123 (30 μM); 283 K; 50 mM sodium-acetate pH 5.5, 0.5 M NaCl
T2 construct: Crkl adaptor protein, SH2 domain, residues 1-111; Subcloned in pET28b+; all experiments were done on the N-terminally His-tagged protein; also called Crkl-SH2; Crkl SH2 domain; source: E. coli BL21 (DE3), purified (HisTrap nickel column, desalting); not shown: His tag, N-terminal, kept

[3] = target: T3, SH2 domain of Crkl protein (residues 1-111), H80A variant (UniProt P46109 1-111, H80A); test: stopped-flow fluorescence kinetics (FRET); dansyl-Pax112-123 constant at 2 μM mixed with Crkl-SH2 2 to 10 μM (pseudo-first-order, kon); koff by displacement of the preincubated 2 µM complex with excess non-dansylated Pax112-123 (30 μM); 283 K; 50 mM TrisHCl pH 8.0, 0.5 M NaCl
T3 construct: Crkl adaptor protein, SH2 domain, residues 1-111, His80 replaced by alanine; Site-directed mutant of m1 (QuikChange); source: E. coli BL21 (DE3), purified (HisTrap nickel column, desalting); not shown: His tag, N-terminal, kept

[4] = target: T2, SH2 domain of Crkl protein (residues …); test: as above
[5] = target: T1, SH2 domain of Crkl protein (residues …); test: as above
[6] = target: T4, SH2 domain of Crkl protein (residues 1-111), H33A variant (UniProt P46109 1-111, H33A); test: as above
T4 construct: Crkl adaptor protein, SH2 domain, residues 1-111, His33 replaced by alanine; Site-directed mutant of m1 (QuikChange); source: E. coli BL21 (DE3), purified (HisTrap nickel column, desalting); not shown: His tag, N-terminal, kept

[7] = target: T3, SH2 domain of Crkl protein (residues …); test: stopped-flow fluorescence kinetics (FRET); dansyl-Pax112-123 constant at 2 μM mixed with Crkl-SH2 2 to 10 μM (pseudo-first-order, kon); koff by displacement of the preincubated 2 µM complex with excess non-dansylated Pax112-123 (30 μM); 283 K; 50 mM sodium-HEPES pH 7.5, 0.5 M NaCl
[8] = target: T2, SH2 domain of Crkl protein (residues …); test: as above
[9] = target: T1, SH2 domain of Crkl protein (residues …); test: as above
[10] = target: T4, SH2 domain of Crkl protein (residues …); test: as above

T2 sequence (P46109 1-111): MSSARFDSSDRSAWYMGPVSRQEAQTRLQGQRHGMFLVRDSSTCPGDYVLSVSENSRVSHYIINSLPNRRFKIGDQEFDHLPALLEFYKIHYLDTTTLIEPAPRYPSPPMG
T1 sequence (P46109 1-111 H91A): as the sequence (P46109 1-111) above, with H91A counted along it
T3 sequence (P46109 1-111 H80A): as the sequence (P46109 1-111) above, with H80A counted along it
T4 sequence (P46109 1-111 H33A): as the sequence (P46109 1-111) above, with H33A counted along it

Kd [1]: 2.6 ± 0.1 µM
koff [1]: 34.9 ± 0.5 s⁻¹
kon [1]: 1.36e+07 ± 600000 M⁻¹ s⁻¹
Kd [2]: 3 ± 0.3 µM
koff [2]: 25.6 ± 0.4 s⁻¹
kon [2]: 8.4e+06 ± 700000 M⁻¹ s⁻¹
Kd [3]: 2.3 ± 0.3 µM
koff [3]: 30.1 ± 3.3 s⁻¹
kon [3]: 1.32e+07 ± 700000 M⁻¹ s⁻¹
Kd [4]: 3.1 ± 0.2 µM
koff [4]: 41.4 ± 0.9 s⁻¹
kon [4]: 1.32e+07 ± 700000 M⁻¹ s⁻¹
Kd [5]: 2.9 ± 0.1 µM
koff [5]: 39 ± 0.7 s⁻¹
kon [5]: 1.32e+07 ± 500000 M⁻¹ s⁻¹
Kd [6]: 2 ± 0.3 µM
koff [6]: 29.3 ± 3.4 s⁻¹
kon [6]: 1.46e+07 ± 1.1e+06 M⁻¹ s⁻¹
Kd [7]: 2 ± 0.2 µM
koff [7]: 27.8 ± 2.3 s⁻¹
kon [7]: 1.36e+07 ± 1.1e+06 M⁻¹ s⁻¹
Kd [8]: 2.8 ± 0.4 µM
koff [8]: 28.6 ± 0.5 s⁻¹
kon [8]: 1.04e+07 ± 1.4e+06 M⁻¹ s⁻¹
Kd [9]: 2.6 ± 0.1 µM
koff [9]: 25.9 ± 0.3 s⁻¹
kon [9]: 1e+07 ± 500000 M⁻¹ s⁻¹
Kd [10]: 2.3 ± 0.5 µM
koff [10]: 24.6 ± 3.2 s⁻¹
kon [10]: 1.08e+07 ± 1.9e+06 M⁻¹ s⁻¹
B1: dansylated Pax_(112–123) peptide (Dans-GEEEHV-pY-SFPNK) (peptide)
peptide: Dansyl-GEEEHV[pY]SFPNK
notes: The dansyl group is the FRET acceptor of Trp14 of the SH2 domain; source: synthetic peptide, bought: GenScript
